Substitutions are numbered along the chain they refer to. Where two headings read alike, the source gives them in different places. Each block holds one binder with its values, some of them ahead of it.
What was measured:
Assay in all cases: SPR
[1] = target: T1, FcgRIIb (human, UniProt P31994)
T1 chain: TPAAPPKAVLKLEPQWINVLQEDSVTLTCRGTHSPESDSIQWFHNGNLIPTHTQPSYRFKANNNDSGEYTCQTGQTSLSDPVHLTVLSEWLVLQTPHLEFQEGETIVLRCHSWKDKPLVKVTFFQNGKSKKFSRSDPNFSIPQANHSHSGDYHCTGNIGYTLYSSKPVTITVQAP

[2] = target: T2, FcgRIIIa F (human, UniProt P08637)
[3] = target: T3, FcgRIa (human, UniProt P12314)
T3 chain: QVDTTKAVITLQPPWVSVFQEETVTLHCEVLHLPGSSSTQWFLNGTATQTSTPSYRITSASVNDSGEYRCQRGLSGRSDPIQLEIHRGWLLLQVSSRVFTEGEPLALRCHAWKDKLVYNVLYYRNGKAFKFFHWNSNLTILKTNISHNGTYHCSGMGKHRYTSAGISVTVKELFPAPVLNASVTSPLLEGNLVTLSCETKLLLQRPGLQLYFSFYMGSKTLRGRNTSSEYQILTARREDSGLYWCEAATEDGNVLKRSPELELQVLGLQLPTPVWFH

[4] = target: T4, FcgRIIa H (human, UniProt P12318)
T4 chain: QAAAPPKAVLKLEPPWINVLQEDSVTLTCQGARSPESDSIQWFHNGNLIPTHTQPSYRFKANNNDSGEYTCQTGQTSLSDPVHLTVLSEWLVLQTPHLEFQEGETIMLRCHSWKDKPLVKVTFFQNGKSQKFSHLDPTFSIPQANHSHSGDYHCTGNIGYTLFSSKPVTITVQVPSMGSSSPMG

[5] = target: T5, FcgRIIIa V (human, UniProt P08637)
[6] = target: T6, FcgRIIa R (human, UniProt P12318)
T6 chain: T4 chain with H134R

[7] = target: T6, FcgRIIa R
[8] = target: T2, FcgRIIIa F; remark: listed apart in the source
[9] = target: T4, FcgRIIa H
[10] = target: T3, FcgRIa
[11] = target: T1, FcgRIIb
[12] = target: T5, FcgRIIIa V; remark: listed apart in the source

T2 sequence (P08637 17-208): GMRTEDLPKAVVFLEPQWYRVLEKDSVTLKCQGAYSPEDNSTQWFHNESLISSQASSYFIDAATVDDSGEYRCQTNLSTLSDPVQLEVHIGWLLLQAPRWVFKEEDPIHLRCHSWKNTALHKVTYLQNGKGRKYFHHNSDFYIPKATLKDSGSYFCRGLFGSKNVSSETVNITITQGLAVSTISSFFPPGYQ
T5 sequence (P08637 17-208 F176V): as the sequence (P08637 17-208) above, with F160V counted along it

B3: H240-Kn202/H240-Hl214/L73-k0 (antibody)
chain 1: QDQLVQSGAEVKKPGASVKVSCKASGFNIKDTYIQWVRQAPGQGLEWMGRIDPLRKQTKYREKFEGRVTITADTSTNTAYMELSSLRSEDTAVYYCVRSGREFDYWGQGTLVTVSSASTKGPSVFPLAPSSKSTSGGTAALGCLVKDYFPEPVTVSWNSGALTSGVHTFPAVLQSSGLYSLSSVVTVPSSSLGTQTYICNVNHKPSNTKVDKKVEPKSCDKTHTCPPCPAPEEQWGPMVFLFPPKPKDTLMISRTPEVTCVVVDVSDEEPEVKFNWYVDGVEVHNAKTKPREEQYNATYRVVSVLTVLHQDWLNGKEYKCKVSNKALPAPIEKTISKAKGQPREPQVCTLPPSRDELTKNQVSLWCLVKGFYPSDIAVEWESNGQPENNYKTTPPVLDSDGSFFLYSKLTVDKSRWQQGNVFSCSVMHEALHNHYTQKSLSLSP
chain 2: QDQLVQSGAEVKKPGASVKVSCKASGFNIKDTYIQWVRQAPGQGLEWMGRIDPLRKQTKYREKFEGRVTITADTSTNTAYMELSSLRSEDTAVYYCVRSGREFDYWGQGTLVTVSSASTKGPSVFPLAPSSKSTSGGTAALGCLVKDYFPEPVTVSWNSGALTSGVHTFPAVLQSSGLYSLSSVVTVPSSSLGTQTYICNVNHKPSNTKVDKKVEPKSCDKTHTCPPCPAPELLGGPSVFLFPPKPKDTLMISRTPEVTCVVVDVSHEEPEVKFNWYVDGVEVHNAKTKPREEQYNSTYRVVSVLTVLHQDWLNGKEYKCKVSNDALPFPIEETISKAKGQPREPQVYTLPPSRCELTKNQVSLSCAVKGFYPSDIAVEWESNGQPENNYKTTPPVLDSDGSFFLVSKLTVDKSRWQQGNVFSCSVMHEALHNHYTQKSLSLSP
chain 3: DIQMTQSPSSLSASVGDRVTITCRASQDIHKYIAWYQQKPGQAPRLLIQYTSTLQPGVPSRFSGSGSGTDYTFTISSLQPEDIATYYCLQYEQLRTFGGGTKVEIKRTVAAPSVFIFPPSDEQLKSGTASVVCLLNNFYPREAKVQWKVDNALQSGNSQESVTEQDSKDSTYSLSSTLTLSKADYEKHKVYACEVTHQGLSSPVTKSFNRGEC
Kd [1]: 6100 nM | Kd [2]: 2.6 nM | Kd [3]: 0.09 nM | Kd [4]: 440 nM | Kd [5]: 0.95 nM | Kd [6]: 830 nM

B5: H240-Kn205/H240-Hl212/L73-k0 (antibody)
chain 1: B3 chain 1 with E233Y, Q234L, W235G, M238S, D267H, E269D, Y295W, A297C
chain 2: B3 chain 2 with S238D, E269D, D325K, F329A, E333V
chain 3: B3 chain 3
Kd [7]: 610 nM | Kd [8]: 12 nM | Kd [9]: 370 nM | Kd [10]: 0.054 nM | Kd [11]: 1600 nM | Kd [12]: 4.2 nM

B10: H240-Kn198/H240-Hl076/L73-k0 (antibody)
chain 1: B3 chain 1 with E233L
chain 2: B3 chain 2 with F329M
chain 3: B3 chain 3
Kd [7]: 630 nM | Kd [8]: 1.5 nM | Kd [9]: 140 nM | Kd [10]: 0.083 nM | Kd [11]: 6300 nM | Kd [12]: 0.54 nM

B11: H240-Kn230/H240-Hl068/L73-k0 (antibody)
chain 1: B3 chain 1 with E233V, Q234Y, M238I, E269D, A326D
chain 2: B3 chain 2 with F329K
chain 3: B3 chain 3
Kd [1]: 150 nM | Kd [2]: 2.6 nM | Kd [3]: 0.18 nM | Kd [4]: 22 nM | Kd [5]: 0.93 nM | Kd [6]: 9.6 nM

B12: H240-Kn221/H240-Hl068/L73-k0 (antibody)
chain 1: B3 chain 1 with E233T, Q234Y, E269D, A326D
chain 2: B3 chain 2 with F329K
chain 3: B3 chain 3
Kd [7]: 29 nM | Kd [8]: 2.7 nM | Kd [9]: 44 nM | Kd [10]: 0.18 nM | Kd [11]: 220 nM | Kd [12]: 0.47 nM

B15: H240-Kn213/H240-Hl076/L73-k0 (antibody)
chain 1: B3 chain 1 with E233A
chain 2: B3 chain 2 with F329M
chain 3: B3 chain 3
Kd [7]: 820 nM | Kd [8]: 2.6 nM | Kd [9]: 210 nM | Kd [10]: 0.082 nM | Kd [11]: 6100 nM | Kd [12]: 0.73 nM

B16: H240-Kn222/H240-Hl068/L73-k0 (antibody)
chain 1: B3 chain 1 with E233A, Q234Y, E269D, A326D
chain 2: B3 chain 2 with F329K
chain 3: B3 chain 3
Kd [7]: 28 nM | Kd [8]: 3.3 nM | Kd [9]: 49 nM | Kd [10]: 0.14 nM | Kd [11]: 190 nM | Kd [12]: 0.54 nM

Second part, the binder after the results:

Kd [1]: 140 nM | Kd [2]: 2.3 nM | Kd [3]: 0.19 nM | Kd [4]: 65 nM | Kd [5]: 0.68 nM | Kd [6]: 21 nM
B1: H240-Kn234/H240-Hl068/L73-k0 (antibody)
chain 1: B3 chain 1 with E233D, Q234Y, M238I, E269D, A326D
chain 2: B3 chain 2 with F329K
chain 3: B3 chain 3

Kd [7]: 23 nM | Kd [8]: 3.2 nM | Kd [9]: 48 nM | Kd [10]: 0.16 nM | Kd [11]: 150 nM | Kd [12]: 0.52 nM
B2: H240-Kn189/H240-Hl068/L73-k0 (antibody)
chain 1: B3 chain 1 with E233S, Q234Y, E269D, A326D
chain 2: B3 chain 2 with F329K
chain 3: B3 chain 3

Kd [7]: 54 nM | Kd [8]: 4 nM | Kd [9]: 57 nM | Kd [10]: 0.14 nM | Kd [11]: 360 nM | Kd [12]: 0.53 nM
B4: H240-Kn224/H240-Hl068/L73-k0 (antibody)
chain 1: B3 chain 1 with E233H, Q234Y, E269D, A326D
chain 2: B3 chain 2 with F329K
chain 3: B3 chain 3

Kd [7]: 37 nM | Kd [8]: 3.5 nM | Kd [9]: 33 nM | Kd [10]: 0.14 nM | Kd [11]: 220 nM | Kd [12]: 0.5 nM
B6: H240-Kn218/H240-Hl068/L73-k0 (antibody)
chain 1: B3 chain 1 with E233Q, Q234Y, E269D, A326D
chain 2: B3 chain 2 with F329K
chain 3: B3 chain 3

Kd [1]: 1600 nM | Kd [2]: 3.7 nM | Kd [3]: 0.24 nM | Kd [4]: 49 nM | Kd [5]: 0.85 nM | Kd [6]: 240 nM
B7: H240-Kn198/H240-Hl068/L73-k0 (antibody)
chain 1: B3 chain 1 with E233L
chain 2: B3 chain 2 with F329K
chain 3: B3 chain 3

Kd [1]: 2800 nM | Kd [2]: 1.8 nM | Kd [3]: 0.13 nM | Kd [4]: 290 nM | Kd [5]: 0.8 nM | Kd [6]: 370 nM
B8: H240-Kn227/H240-Hl214/L73-k0 (antibody)
chain 1: B3 chain 1 with M238I
chain 2: B3 chain 2
chain 3: B3 chain 3

Kd [1]: 3700 nM | Kd [2]: 3.9 nM | Kd [3]: 0.091 nM | Kd [4]: 150 nM | Kd [5]: 1.4 nM | Kd [6]: 560 nM
B9: H240-Kn201/H240-Hl214/L73-k0 (antibody)
chain 1: B3 chain 1 with E233F
chain 2: B3 chain 2
chain 3: B3 chain 3

Kd [7]: 640 nM | Kd [8]: 14 nM | Kd [9]: 760 nM | Kd [10]: 0.038 nM | Kd [11]: 1300 nM | Kd [12]: 7.4 nM
B13: H240-Kn204/H240-Hl211/L73-k0 (antibody)
chain 1: B3 chain 1 with E233Y, Q234L, W235G, M238S, D267H, E269D, K289Y, Y295W, A297S
chain 2: B3 chain 2 with S238D, E269D, D325K, F329M, E333V
chain 3: B3 chain 3

Kd [7]: 680 nM | Kd [8]: 1.9 nM | Kd [9]: 170 nM | Kd [10]: 0.085 nM | Kd [11]: 5200 nM | Kd [12]: 0.49 nM
B14: H240-Kn207/H240-Hl076/L73-k0 (antibody)
chain 1: B3 chain 1 with E233V
chain 2: B3 chain 2 with F329M
chain 3: B3 chain 3

— US10766960 (dated 2020)
